# Reference: publication PMC10623405, “CsTT8 regulates anthocyanin accumulation in blood orange through alternative splicing transcription” (Horticulture Research, 2023)
# B1: RUBY1 (MYB-type transcription factor) from blood orange 'Tarocco' (natural protein, UniProt H6U1F1 1-262, looked up)
# chain: MADSLGVRKGAWTGEEDDLLRKCIEKYGEAKWHQVPLRAGLHRCRKSCRLRWLNYLNPNIKRGEFAADEVDLILRLHKLLGNRWSLIVGRLPGRTANDVKNFWNTHLRKKVDKCCKNNKEMKAKAEKVEKINIIKPQPRTFAKNSQWLKGKGMTSNNLQLGDYNLGKQSTPSDHHHHHQQQQENETESVWWESFLFGDELDQQGISSSLSRPEEESTTANIFAEKSPVVTKVTENRVIEAGQSCPTDDFAFDAELWDLLNAK
# Assays:
# [1] = molecular target: CsTT8 (TT8 with the full-length open reading frame) from blood orange 'Tarocco' (Citrus sinensis cv. 'Tarocco' (blood orange))
# [2] = molecular target: Δ15-TT8 (alternative splicing transcript of CsTT8 with the fourth exon skipped) (Citrus sinensis cv. 'Tarocco' (blood orange))
# [3] = molecular target: CsTT8 (TT8 with the full-length open reading frame) from blood orange 'Tarocco' (Citrus sinensis cv. 'Tarocco' (blood …, UniProt A0A0U4H1K1 1-694)); assay: cell-based or functional assay
# Chain of CsTT8 (TT8 with the full-length open reading frame) from blood orange 'Tarocco' (Citrus sinensis cv. 'Tarocco' (A0A0U4H1K1 entry or part of it): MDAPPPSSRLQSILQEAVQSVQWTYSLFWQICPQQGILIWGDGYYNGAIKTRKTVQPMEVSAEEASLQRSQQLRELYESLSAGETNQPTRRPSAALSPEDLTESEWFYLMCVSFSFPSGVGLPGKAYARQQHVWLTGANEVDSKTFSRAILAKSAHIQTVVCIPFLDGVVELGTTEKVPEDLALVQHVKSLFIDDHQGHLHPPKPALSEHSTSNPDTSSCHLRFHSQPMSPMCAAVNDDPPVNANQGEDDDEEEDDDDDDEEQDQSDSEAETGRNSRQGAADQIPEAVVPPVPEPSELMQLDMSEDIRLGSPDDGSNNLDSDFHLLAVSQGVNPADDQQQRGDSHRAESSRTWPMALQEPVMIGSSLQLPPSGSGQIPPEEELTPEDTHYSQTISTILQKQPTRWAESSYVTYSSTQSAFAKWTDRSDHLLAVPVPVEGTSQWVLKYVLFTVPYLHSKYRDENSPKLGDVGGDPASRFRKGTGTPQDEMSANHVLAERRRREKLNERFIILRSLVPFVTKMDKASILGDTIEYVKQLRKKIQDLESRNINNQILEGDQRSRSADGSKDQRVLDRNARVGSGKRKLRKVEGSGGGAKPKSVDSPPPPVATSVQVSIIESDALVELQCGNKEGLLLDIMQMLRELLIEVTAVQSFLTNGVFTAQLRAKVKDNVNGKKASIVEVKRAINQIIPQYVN
# Chain of Δ15-TT8 (alternative splicing transcript of CsTT8 with the fourth exon skipped) (Citrus sinensis cv. 'Tarocco' (blood orange)) (main, as listed by the source mutant): as the sequence (A0A0U4H1K1 entry or part of it) above
Molecule,"dual luciferase reporter with the PH8 promoter in N. benthamiana leaves, effectors TT8 and MYB5, LUC/REN ratio [1] [LUC/REN]","dual luciferase reporter with the F3′H promoter in N. benthamiana leaves, effectors Δ15-TT8 and RUBY1, LUC/REN ratio [2] [LUC/REN]","dual luciferase reporter with the F3′H promoter in N. benthamiana leaves, effectors TT8 and RUBY1, LUC/REN ratio [3] [LUC/REN]"
MYB5 (an MYB-type transcription factor) from sweet orange (natural protein),0.34,,
B1,,0.042,0.099
